Patent US20070218075
Where a chain is given by its changes, count along the chain named.

Legend:
[1] = target: T1, 1Q FnbA mutant (recombinant Gln103Ala FnbA mutant, residues Ala1-Pro839)
T1 chain: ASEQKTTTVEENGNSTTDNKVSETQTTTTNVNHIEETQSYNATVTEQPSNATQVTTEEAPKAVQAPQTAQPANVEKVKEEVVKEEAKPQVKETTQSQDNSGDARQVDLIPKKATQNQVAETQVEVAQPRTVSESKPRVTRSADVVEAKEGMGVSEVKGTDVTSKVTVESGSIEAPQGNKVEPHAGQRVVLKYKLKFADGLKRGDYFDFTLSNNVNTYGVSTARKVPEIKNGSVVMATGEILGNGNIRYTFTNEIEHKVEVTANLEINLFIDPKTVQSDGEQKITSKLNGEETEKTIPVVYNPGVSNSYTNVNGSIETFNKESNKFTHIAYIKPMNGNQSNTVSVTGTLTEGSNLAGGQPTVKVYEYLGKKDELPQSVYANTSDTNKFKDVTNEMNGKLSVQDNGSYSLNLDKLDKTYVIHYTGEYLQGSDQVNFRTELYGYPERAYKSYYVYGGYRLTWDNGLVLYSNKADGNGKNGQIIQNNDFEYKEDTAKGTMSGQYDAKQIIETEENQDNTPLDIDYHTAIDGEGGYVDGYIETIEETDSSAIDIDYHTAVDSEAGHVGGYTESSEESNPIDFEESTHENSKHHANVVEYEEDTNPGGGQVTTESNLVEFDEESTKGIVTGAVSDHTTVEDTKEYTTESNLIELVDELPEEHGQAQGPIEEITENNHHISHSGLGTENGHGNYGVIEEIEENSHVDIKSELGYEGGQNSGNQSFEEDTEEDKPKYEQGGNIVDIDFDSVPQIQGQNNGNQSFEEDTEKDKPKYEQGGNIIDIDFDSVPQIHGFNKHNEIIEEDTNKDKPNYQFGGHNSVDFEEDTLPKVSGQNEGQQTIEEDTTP

[2] = target: T2, 4Q4K FnbA mutant (recombinant Gln103Ala, Gln105Ala, Gln783Ala, Gln830Ala, Lys157Ala, Lys503Ala, Lys620Ala, and Lys762Ala mutant, residues Ala1-Pro839)
T2 chain: T1 chain with Q105A, K157A, K503A, K620A, K762A, Q783A, Q830A

[3] = target: T3, recombinant fibronectin-binding protein A (rFnbA) comprising residues Ala1 through Pro839 from S. aureus strain ATCC49525, wild type
T3 chain: T1 chain with A103Q

B1: Factor XIIIa (Factor XIII, Haematologic Technologies, activated by thrombin) (protein)
chain 1: GVNLQEFLNVTSVHLFKERWDTNKVDHHTDKYENNKLIVRRGQSFYVQIDFSRPYDPRRDLFRVEYVIGRYPQENKGTYIPVPIVSELQSGKWGAKIVMREDRSVRLSIQSSPKCIVGKFRMYVAVWTPYGVLRTSRNPETDTYILFNPWCEDDAVYLDNEKEREEYVLNDIGVIFYGEVNDIKTRSWSYGQFEDGILDTCLYVMDRAQMDLSGRGNPIKVSRVGSAMVNAKDDEGVLVGSWDNIYAYGVPPSAWTGSVDILLEYRSSENPVRYGQCWVFAGVFNTFLRCLGIPARIVTNYFSAHDNDANLQMDIFLEEDGNVNSKLTKDSVWNYHCWNEAWMTRPDLPVGFGGWQAVDSTPQENSDGMYRCGPASVQAIKHGHVCFQFDAPFVFAEVNSDLIYITAKKDGTHVVENVDATHIGKLIVTKQIGGDGMMDITDTYKFQEGQEEERLALETALMYGAKKPLNTEGVMKSRSNVDMDFEVENAVLGKDFKLSITFRNNSHNRYTITAYLSANITFYTGVPKAEFKKETFDVTLEPLSFKKEAVLIQAGEYMGQLLEQASLHFFVTARINETRDVLAKQKSTVLTIPEIIIKVRGTQVVGSDMTVTVEFTNPLKETLRNVWVHLDGPGVTRPMKKMFREIRPNSTVQWEEVCRPWVSGHRKLIASMSSDSLRHVYGELDVQIQRRPSM
chain 2: EEKPCGFPHVENGRIAQYYYTFKSFYFPMSIDKKLSFFCLAGYTTESGRQEEQTTCTTEGWSPEPRCFKKCTKPDLSNGYISDVKLLYKIQENMRYGCASGYKTTGGKDEEVVQCLSDGWSSQPTCRKEHETCLAPELYNGNYSTTQKTFKVKDKVQYECATGYYTAGGKKTEEVECLTYGWSLTPKCTKLKCSSLRLIENGYFHPVKQTYEEGDVVQFFCHENYYLSGSDLIQCYNFGWYPESPVCEGRRNRCPPPPLPINSKIQTHSTTYRHGEIVHIECELNFEIHGSAEIRCEDGKWTEPPKCIEGQEKVACEEPPFIENGAANLHSKIYYNGDKVTYACKSGYLLHGSNEITCNRGKWTLPPECVENNENCKHPPVVMNGAVADGILASYATGSSVEYRCNEYYLLRGSKISRCEQGKWSSPPVCLEPCTVNVDYMNRNNIEMKWKYEGKVLHGDLIDFVCKQGYDLSPLTPLSELSVQCNRGEVKYPLCTRKESKGMCTSPPLIKHGVIISSTVDTYENGSSVEYRCFDHHFLEGSREAYCLDGMWTTPPLCLEPCTLSFTEMEKNNLLLKWDFDNRPHILHGEYIEFICRGDTYPAELYITGSILRMQCDRGQLKYPRCIPRQSTLSYQEPLRT
Factor XIIIa-catalyzed incorporation of dansylcadaverine (fluorescence of the FnbA band on SDS-PAGE) [1]: incorporation of dansylcadaverine into the 1Q FnbA mutant was drastically reduced
Factor XIIIa-catalyzed incorporation of dansylcadaverine (fluorescence of the FnbA band on SDS-PAGE) [2]: Further reduction in fluorescence intensity was observed with the 4Q4K rFnbA mutant
Factor XIIIa-catalyzed incorporation of dansylcadaverine (fluorescence of the FnbA band on SDS-PAGE) [3]: the band corresponding to the wild-type FnbA undergoes a continual increase of fluorescence reflecting the enzymatic attachment of increasing molecules of the probe
